# In US20140234868A1, “USE FOR GLYCOLIPOPROTEIN GINTONIN, ISOLATED AND IDENTIFIED FROM GINSENG, AS A NATURAL MEDICAL-PLANT DERIVED LIGAND” (KONKUK UNIVERSITY INDUSTRIAL COOPERATION CORP., priority 2011, published 2014):
# Legend:
# Format in all cases: cell-based
# LPA4 receptor = LPA4 receptor (Homo sapiens, UniProt Q99677); experiment: Intracellular free Ca2+ (Fura-2AM) in LPA4-expressing B103 cells; parameters: host or cells: B103 rat neuroblastoma cells; settings: gintonin
# From the text: LPA family receptors are endogenous to cells of most organs. B103 rat neuroblastoma cells, known as LPA receptor-null cells (Valentine et al., Biochim Biophys Acta 1780. 597-605) were transiently transfected with a plasmid (vector) carrying one of genes coding for LPA1(edg-2), LPA2(edg-4), LPA3(edg-7), LPA4, LPA5 and LPA6 receptors or a plasmid carrying none of them (empty vector). Two or three days after transfection, the cells are suspended, and made permeable. Then, the permeable cells are treated with Fura-2AM, a fluorescent dye binding to calcium, and then with gintonin, followed by spectrofluorephotometry to examine whether gintonin induces an increase in intracellular free Ca^2+ level. […]
# [1] = system: mutant NMDA receptor (S1308A); experiment: Gintonin-induced activation of mutant NMDA receptor S1308A in oocytes; settings: mutant S1308A (PKC phosphorylation site)
# Description: (§1) Two-electrode voltage-clamp recordings were obtained from individual oocytes placed in a small Plexiglas net chamber (5 ml). Electrophysiological experiments were performed using microelectrodes filled with 3 M KCl (resistance of 0.2-0.7 MΩ) and an Oocyte Clamp amplifier (OC-725C; Warner Instrument, Hamden, Conn.). For physiological recordings of NMDA receptor activity, oocytes were first perfused with Mg^2+-free ND96 (mM: 96 NaOH, 2 KOH, 0.3 CaCl2, 5 HEPES pH 7.6 with methanesulfonic acid). Then, the oocytes were clamped at −60 mV holding potential, followed by recoding NMDA currents (induced by administering […]) (Zheng et al., J Neurosci. 17, 8676-8686, 1997; Chang and Kuo, J Neurosci. 28, 1546-1556, 2008).
# Thus, it is understood that gintonin stimulates PKC to phosphorylate the NMDA receptor at a specific site (S1308), and thus that gintonin-induced NMDA receptor activation is associated with PKC activity.
# NMDA receptor = NMDA receptor activity in oocytes expressing active or inactive RPTP alpha; settings: oocytes expressing active or inactive RPTP α
# Description: as §1
# Chain of LPA4 receptor (Q99677 whole entry): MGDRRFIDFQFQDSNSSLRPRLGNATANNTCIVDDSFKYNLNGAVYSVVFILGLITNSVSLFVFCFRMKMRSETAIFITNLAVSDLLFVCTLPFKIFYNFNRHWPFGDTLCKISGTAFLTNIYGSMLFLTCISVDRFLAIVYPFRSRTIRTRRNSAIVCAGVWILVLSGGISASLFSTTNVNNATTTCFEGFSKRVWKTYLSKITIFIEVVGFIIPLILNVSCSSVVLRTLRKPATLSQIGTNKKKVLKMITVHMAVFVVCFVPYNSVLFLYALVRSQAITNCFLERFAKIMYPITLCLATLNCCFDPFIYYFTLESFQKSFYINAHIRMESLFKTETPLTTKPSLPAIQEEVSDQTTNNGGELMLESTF
molecule,measurement,setting,value
gintonin: ginseng-derived glycolipoprotein; structural protein of ginseng major latex-like protein (MLP151) and ribonuclease-like storage proteins; crude gintonin used in tests (protein) chain 1: MGLTGKLICQTGIKSDGDVFHELFGTRPHHVPNITPANIQGCDLHEGEFGKVGSVVIWNYSIDGNAMIAKEEIVAIDEEDKSVTFKVVEGHLFEEFKSIVFSVHVDTKGEDNLVTWSIDYEKLNESVKDPTSYLDFLLSVTRDIEAHHLPK chain 2: RSDYPWAMFALRLQWPAGFCEVNNACDTKSLLNTFTIHGLYPYNAKGTPALYCDGTAFDVNSVSDFLAEMHLAWPSHETNTEDIQFWEHEWKKHGRCSEALLKQTDYFRTALAFRKAFDIVGLLNQEGIYPNNDLYRPKMIKEAIKKHLNAVPEIDFTKNENSEYVLTDINVCVNQQATRFVDCPTDDATDDYRLKFVRLPSKMKFADPRTNSII,increase in intracellular calcium level,LPA4 receptor,61.6 ± 11.8 µM
same,gintonin-induced NMDA receptor activation,[1],a low level of gintonin-induced NMDA receptor activation
same,NMDA receptor activity when treated with gintonin,NMDA receptor,NMDA receptor activity at a low level
